Drawing on the Immune Epitope Database (IEDB), this text covers Kd for 17 sequences.

One assay deals with HLA-A*02:16. As to the kind of experiment: IEDB peptide-MHC binding, purified MHC/direct/fluorescence; filed as Kd, often an IC50 or EC50 that approximates it; ≥ and ≤ were set here for values at or beyond the usual limits of such assays. To be noted: source organism: Araucaria virus.
Assay [1] has as its target HLA-A*29:02. The assay is described as above.
Assay [2] deals with HLA-A*02:19. Described as above.
In assay [3] the target is HLA-B*15:01. The description is as above. To be noted: source organism: Orthohantavirus andesense.
Another assay concerns the target HLA-A*02:11. Described as above. To be noted: source organism: Araucaria virus.
Another assay addresses HLA-A*24:03. The assay is described as above.
For assay [4], the target named is HLA-A*68:02. Described as above. To be noted: source organism: Araucaria virus.
The target in the next assay is HLA-A*02:12. The description is as above.
Another assay concerns the target HLA-A*23:01. The assay is described as above.
Assay [5] concerns the target HLA-A*03:01. Described as above.
The target of the next assay is HLA-B*39:01. As to the kind of experiment: IEDB peptide-MHC binding, purified MHC/competitive/fluorescence; filed as Kd, often an IC50 or EC50 that approximates it; ≥ and ≤ were set here for values at or beyond the usual limits of such assays.
For a further assay, the target named is HLA-B*57:01. The assay is described as above.
In assay [6] the target is HLA-A*02:01. The assay is described as above.
The target of the next assay is HLA-A*69:01. Described as above.
The target of a further assay is HLA-B*51:01. Described as above.
The target in assay [7] is HLA-A*26:01. Described as above.
The next assay addresses HLA-B*27:03. The assay is described as above.
The target in a further assay is HLA-B*15:17. The description is as above.
A further assay addresses HLA-B*18:01. The description is as above.
A further assay deals with HLA-B*46:01. The description is as above.
Assay [8] addresses HLA-A*29:02. The assay is described as above.
Assay [9] addresses HLA-A*02:19. The description is as above.
The target of assay [10] is HLA-B*15:01. The assay is described as above.
In assay [11] the target is HLA-A*03:01. Described as above.
Assay [12] addresses HLA-A*02:01. Nature of the assay: IEDB peptide-MHC binding, purified MHC/competitive/radioactivity; filed as Kd, often an IC50 or EC50 that approximates it; ≥ and ≤ were set here for values at or beyond the usual limits of such assays.
The next assay has as its target HLA-A*02:17. Described as above.
The target of a further assay is HLA-A*02:03. The description is as above.
The next assay has as its target HLA-A*02:06. The assay is described as above.
For assay [13], the target named is HLA-A*68:02. Described as above. To be noted: source organism: Dengue virus 3 Martinique/1243/1999.
Assay [14] has as its target HLA-A*26:01. The description is as above. To be noted: source organism: Dengue virus 4 Philippines/H241/1956.
The target of a further assay is HLA-A*30:01. The assay is described as above. To be noted: source organism: Dengue virus 1 Brazil/97-11/1997.
The target in a further assay is HLA-A*31:01. As to the kind of experiment: IEDB peptide-MHC binding, purified MHC/competitive/fluorescence; filed as Kd, often an IC50 or EC50 that approximates it; ≥ and ≤ were set here for values at or beyond the usual limits of such assays. The following applies: source organism: Zaire ebolavirus.
The next assay deals with HLA-A*01:01. As to the kind of experiment: IEDB peptide-MHC binding, purified MHC/competitive/radioactivity; filed as Kd, often an IC50 or EC50 that approximates it; ≥ and ≤ were set here for values at or beyond the usual limits of such assays. The following applies: source organism: Dengue virus 4 Philippines/H241/1956.
The mark [15] stands for this setting: source organism: Araucaria virus.
Setting [16] is: source organism: Campylobacter jejuni subsp. jejuni NCTC 11168 = ATCC 700819.
[17] abbreviates: source organism: Dengue virus 4 Philippines/H241/1956.
Setting [18] is: source organism: Mycobacterium tuberculosis variant bovis BCG str. Pasteur 1173P2.
[19] abbreviates: source organism: Dengue virus 1 Singapore/S275/1990.
[20] abbreviates: source organism: Dengue virus 2 Thailand/NGS-C/1944.
[21] abbreviates: source organism: Dengue virus 2 Peru/IQT2913/1996.
Where [22] appears, read: source organism: Zaire ebolavirus.

Regarding AQKLATKPV, the Kd (commonly the constant that tells how readily two partners part at equilibrium) in the assay with HLA-A*02:16 is no less than 20000 nM; with HLA-A*29:02 [1] (setting [15]), no less than 20000 nM; with HLA-A*02:19 [2] (setting [15]) it was no less than 20000 nM; with HLA-B*15:01 [3], 716 nM; with HLA-A*02:11 it was no less than 20000 nM; with HLA-A*24:03 (setting [15]) it was no less than 20000 nM. Besides, the Kd with HLA-A*68:02 [4], with HLA-A*02:12 (setting [15]), with HLA-A*23:01 (setting [15]), with HLA-A*03:01 [5] (setting [15]), in the assay with HLA-B*39:01 (setting [15]) and with HLA-B*57:01 (setting [15]) was no less than 20000 nM in each case. Also, the Kd with HLA-A*02:01 [6] (setting [15]), in the assay with HLA-A*69:01 (setting [15]), with HLA-B*51:01 (setting [15]), with HLA-A*26:01 [7] (setting [15]), with HLA-B*27:03 (setting [15]) and with HLA-B*15:17 (setting [15]) was no less than 20000 nM in each case. Moreover, the Kd with HLA-B*18:01 (setting [15]) and in the assay with HLA-B*46:01 (setting [15]) was no less than 20000 nM throughout.
In the case of AVGFFPTGV, the Kd with HLA-B*57:01 (setting [16]) was no less than 20000 nM; in the assay with HLA-A*29:02 [8] (setting [16]) it was 351 nM; in the assay with HLA-A*02:19 [9] (setting [16]), 103 nM; in the assay with HLA-A*02:01 [6] (setting [16]) it was 2.2 nM; with HLA-B*15:01 [10] (setting [16]), no less than 20000 nM; with HLA-B*51:01 (setting [16]), no less than 20000 nM. Further, the Kd with HLA-A*26:01 [7] (setting [16]), with HLA-B*27:03 (setting [16]), with HLA-B*18:01 (setting [16]), with HLA-B*46:01 (setting [16]) and in the assay with HLA-A*03:01 [11] (setting [16]) was no less than 20000 nM throughout.
FESTITGEY yielded a Kd with HLA-A*29:02 [8] (source organism: Vibrio cholerae 2740-80) of 7.5 nM.
Take FMKDGRSLV: the Kd with HLA-A*02:01 [12] (setting [17]) amounted to 219 nM; in the assay with HLA-A*02:17 (setting [17]), 1660 nM; with HLA-A*02:03 (setting [17]) it was 16.1 nM; with HLA-A*02:06 (setting [17]), 318 nM.
Turning to GLFGKTQVGV, the figures for the Kd with HLA-A*02:01 [12] (setting [17]), with HLA-A*02:17 (setting [17]) and in the assay with HLA-A*02:03 (setting [17]) were 6.21 nM, 2760 nM and 0.55 nM, respectively.
GVFHTMWHV: the Kd with HLA-A*02:01 [12] (setting [17]) turned out to be 7.59 nM; with HLA-A*02:17 (setting [17]), 109 nM; with HLA-A*02:06 (source organism: Dengue virus 3 Martinique/1243/1999) it was 4.41 nM; in the assay with HLA-A*68:02 [13], 7.01 nM.
As for HLTRVGPYL, the Kd in the assay with HLA-B*57:01 (setting [18]) was no less than 20000 nM; with HLA-A*29:02 [8] (setting [18]) it was no less than 20000 nM; in the assay with HLA-A*02:19 [9] (setting [18]) it was 1030 nM; in the assay with HLA-A*02:01 [6] (setting [18]), 2.4 nM; with HLA-B*15:01 [10] (setting [18]), no less than 20000 nM; with HLA-B*51:01 (setting [18]), no less than 20000 nM. The Kd with HLA-A*26:01 [7] (setting [18]), with HLA-B*27:03 (setting [18]), with HLA-B*18:01 (setting [18]), in the assay with HLA-B*46:01 (setting [18]) and with HLA-A*03:01 [11] (setting [18]) was no less than 20000 nM in each case.
For LLAGFMAYM, the Kd came to 4.7 nM in the assay with HLA-A*02:01 [12] (setting [17]), 1.97 nM with HLA-A*02:17 (setting [17]), 68.5 nM in the assay with HLA-A*02:03 (setting [17]) and 1210 nM with HLA-A*26:01 [14].
Take LLENDMKFTV: the figures for the Kd in the assay with HLA-A*02:01 [12] (setting [19]) and with HLA-A*02:17 (setting [19]) were 5.76 nM and 115 nM, respectively.
On to LLVKLALITV, for which the Kd in the assay with HLA-A*02:01 [12] (setting [17]) came out at 17.6 nM; in the assay with HLA-A*02:17 (setting [17]), 6700 nM; with HLA-A*02:03 (setting [17]), 0.18 nM; with HLA-A*02:06 (setting [17]), 769 nM.
For the sequence LLYYWVHLF, in the assay with HLA-A*29:02 [8] (source organism: Bacillus thuringiensis str. Al Hakam), the dissociation constant Kd stood at 22 nM.
For the sequence MLLVLCVTQV, the Kd in the assay with HLA-A*02:01 [12] (setting [20]) was found to be 26.5 nM; in the assay with HLA-A*02:17 (setting [20]) it was 843 nM; in the assay with HLA-A*02:03 (setting [21]), 175 nM; with HLA-A*02:06 (setting [21]), 84 nM.
On to RKSAPSTGGV, for which the Kd with HLA-A*02:01 [12] (source organism: Homo sapiens) was no less than 38700 nM; with HLA-A*02:17 (source organism: Homo sapiens) it was no less than 20600 nM.
Regarding TMLLMLLPTA, the Kd was 30.6 nM with HLA-A*02:01 [12] (setting [19]), 661 nM in the assay with HLA-A*02:17 (setting [19]), 2.59 nM with HLA-A*02:06 (source organism: Dengue virus 1 Brazil/97-11/1997) and 12400 nM with HLA-A*30:01.
Regarding TSACGIFLK, the Kd is no less than 20000 nM with HLA-A*29:02 [1] (setting [22]); no less than 20000 nM with HLA-A*02:19 [2] (setting [22]); no less than 20000 nM with HLA-A*24:03 (setting [22]); no less than 20000 nM with HLA-A*02:12 (setting [22]); no less than 20000 nM with HLA-A*23:01 (setting [22]); 1100 nM with HLA-A*03:01 [5] (source organism: Sudan ebolavirus - Maleo (1979)). For the same sequence, the Kd with HLA-B*39:01 (setting [22]), with HLA-A*31:01, with HLA-B*57:01 (setting [22]), in the assay with HLA-A*02:01 [6] (setting [22]), with HLA-A*69:01 (setting [22]) and in the assay with HLA-B*15:01 [10] (setting [22]) was no less than 20000 nM in each case. Also, the Kd with HLA-B*51:01 (setting [22]), with HLA-A*26:01 [7] (setting [22]), with HLA-B*27:03 (setting [22]), with HLA-B*15:17 (setting [22]), in the assay with HLA-B*18:01 (setting [22]) and with HLA-B*46:01 (setting [22]) was no less than 20000 nM throughout.
VTYECPLLV: the Kd with HLA-A*02:01 [12] (setting [17]) amounted to 26.6 nM; in the assay with HLA-A*02:17 (setting [17]), 562 nM; with HLA-A*01:01, 343 nM.
Regarding YLALIATFKI, in the assay with HLA-A*02:17 (source organism: Dengue virus 3 China/80-2/1980), the Kd stood at 885 nM.
